Experimental data: the NTF2 design screens of Basanta et al. (2020)

Assay: protease stability score; higher = more stable; yeast display proteolysis, trypsin and chymotrypsin;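 also: relative to predicted unfolded state with 0 unfolded-like and 1 meaning tenfold more protease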

Sequence	protease stability score
DELEEKIHRWAELFLKMVLTGNEEFFRHLFDPDARSDINGVRVIGREDMDEVLKFWLDHLRFEHWVYTEVRIYDGRMEVHTRHDIDVNGVLYRRQMRIHLDVVDGRVKEASITRE	1.37
DELEELAEKIIRRLSELLLTGDFRELERFADPHTRVDINGKEFHGREFFSKLWLEMVRRFDHIEVHVHHMEIQGDKVFIDSRLHLLQGDKKEDREVLFILRKIDGRWILTVWKIR	2.32
DELEELEKEAIKESEDILRTGDEERILRLADPNVRVDIDGVVRHGREWWTRLFSDELRKFKGARIRLKEIRSFDGRIRIDTTLEVDGVTRDMYVISEKVNGRWIIRSIHYE	1.33
DELEELIRKLAELFFEILRTGDEDKLRKLLDPHAKFTFIINGVIIDSIGRDFILKLHEDLWRRIKNVRMEYERVEVQGDKAYFRTRMNFNGKETETNLHLIIVDGKLKQESWEIE	0.738
DELEELLQRAIKMFKDTNETGDEETLEKLLDPNVRYQVGDKEFHGREAIHVIFRRADHWKEMRIRSFRVYDGRAELDVEEVIFYNGVEIRTRTRIHFRKVDGRWYVHSIEIS	1.53
DELEENSRLALELWINSFLTGDEDTTEKMADPHVRLIIDGKLFHGREAFSEHMLERSLRADHTEVRLHDRKIVGDKLIIDTRIHSHVNGVDVTLNVLLIMHKYDGRWRIHSVEIH	1.23
DELEETAERMMKQFTDMWRTGDEEYFWRLADPHVRVNIDGVTRIGREESSEMFERWIRHIRLKSVHIEEVEIQGEKSHSDGRLNEIVDGKEEIVHVTINLIVINGRIHSVEFERE	0.765
DELEEVIQKVAEMWVRLYKTGNEEIIHKLADPDVRAVYNGVENIGMHRHVELLHRLLEEIRIHDIRINRIEVQGEKAHNDTQVHFIVGEKRETRETHIEIVVVNGVIKEVVIRIH	0.629
DELEEYLKRLAKEILELMQTGDEDRWMKLADPNVRIDVNGVELHGRETWVERMEDILREIRSEYRIRHVHSQGNWARVDGELDIKVNGRIIRHKTEFIVVTVNGRIREEKFHIR	0.335
DELEHDAREYFRILEESIRTGDEDLFRKLADPNVRLMIDGKNWIGWESYHEELRQYDHRHVDMRIDHIEVVDGRVHIDGRIEVTITIDGVEHRLNHKLRVEIEKIDGRWHMKFILVE	1.67
DELEHFALKFAEEWLQHYLTGNEEMISKLHDPHVKLHIGDKDLIGWEKFEEFLRETLSRVDHLHFNIRSVQSQGNKIVFDGKYIVIQGDKRYEFDIEFHIVVFNGRVHRIHYESH	1.58
DELEHFLLEILRELAHALETGDEERLTDLIDPHARINVDGVEIHGMDHWRELLHQIRFSIEDMHITHVEVQGDKIIIHGRVHVSNEVDGVENRSETHEIWYMKKFDGRWRVTTIEVK	1.3
DELEHHLFELMEKMIKARLTGDEETLHRLADPDTRIEVGEFEFHGREHWVRFVRELDERIKNIRFEIRLRRYETVGNKIHIDIELRYHQGDKEEHHRTEWILIVFNGRLKSIQIVLH	1.81
DELEHIERRYWHLFVRALETGDEERLDRLVDPHARLDWNGREIVGREHLRHYLSHMRIVIEHHHIKDVNIQGEKIDSDIHLVLTMHVGDKDLEIRTDARSIHLKIDGKWLIESHKIK	0.966
DELEHLANEWMKRVIHHLETGDEESWMKYADPNVRTEINIGDKTEERHGRERYIDFIRRLGFDHVHIHDQRIHHVNGVLFIHLNIKIKQGDYLFTSELDIIVRKIDGQWFVRSINIKVD	0.601
DELEHLERQLAEEILEDFMTGNEENFDHLADPNVKHDINGVEIIGREHYVEWWRRIKNVKIELKRYHIIGDKATIDGHEVFEGRRHKMILELDIVNGQIKRVRFELR	0.986
DELEHLLREFFRLWKTAVETGDFRMLLELADPHVKQHIGDKTFVGWERLIESIERIVHEMRITEVTFTQVQVQGDYAHVDLRVFSEVGDKHLILKVELFLLKVNGRWVLESLRVE	1.62
DELEHMVRLLLKIWIHALITGDEELMMDQADPNVRLIIGDKIHHGMETFEEWVHQFKNLTVKHIVLRHTHYQGNKARIVGHLDIEINGRHHRLQTEIVIHKFNGKWYISDLRFD	0.646

Sequence	protease stability score
DELEHRSQEAIEHIVHSMQTGNEEEIERNMDPNARIRVGNYHLHGRKEAVRWFNFFLTELRIHDIHIHDVKSQGEWIHIDGHIRGQINGQEHSVRTHIIVYKINGKWHDTSYHLS	0.723
DELEHWAHIILEEFTRLYTTGDEETFNHLADPDTRLFFNGREFIGREKFIDAWRHLRYKEIRLRDHQVDVQGDKMRMILHMRVNSNINGREVEQDVHLEILTKKIDGRWRLKEVHFQTH	2.39
DELEKAIHHILKELLEARLTGDWQMVIDRFDPHVLLRVGDKEFHGREIIRHLHEQFDHVEHVDLRLENHRYQGNKIHLDIKTTMDVRVGEKRVELRTESRIILLKVNGRWIIESVEIN	2.02
DELEKAMRTAVELFRHLIETGDEEFMQRLADPHTQLIVGDKTFHGRDHVVHEWEKFKNVKYRFEDVEFQGDKIILHSTLEFDGRRLETHIQLHKINGRWLLKRVEIK	1.39
DELEKDARKLFEMIYRMLKTGDEDHFLRLADPDVRVHQGDKEIHGMDISKQIVEDLGIQKIEVHVHKVEIQGDKVDITGEVNWNGQNINLIVYTEKVNGKWRIHSVELH	1.61
DELEKDLKDAFRILIEEVKTGDFKSMRRNMDPDARIDIGDKHSVGREEAIHLMEIFYKEWRFEHIDLHDFTLIGNKLELDMRVHGNVDGVRTIVIRRVISEKIDGRWLIRTESIE	0.494
DELEKFIKYVATRLVHDWMTGDEETSKKLLDPHYKTRILYDGRYTELHGREIFVKFVRELLEEIRIHLEVDRIRPIGDKVLLDTRLEIRIGDKRIERSTELHYVVINGRVDQMELVFI	1.32
DELEKHLIHLAEIFIHNKLTGDEEELQRFMDPSVRTIVGEFHYHGRELVTEWLRREWEEMRIHEIHITHVRFQGDKVIIEGRLDIEVNGRRVDTHALIILVVVDGVMKSVKFEII	1.23
DELEKIVEDFLRVLLEHLHTGNWEYLKEYFDPDVRIKIGDKELHGREDFVRRLREWLSRIKNATFEIEVDDNKVQGDKAILHTKVIIRVGDKLIELKTHIIVNKINGVWMVRSQSVE	1.46
DELEKLLEHMLRLMNELLETGDWDWIMSLADPHTKFRLDINGVEHIDHGWEFLHKRIEELGADHREFRVRDIHTQGDKVHSEGEHLIRVNGKEIHIDVRIILLVVNGKVKEIEVRFK	1.7
DELEKLLKLAMEMSLKLFETGDEESLHRLIDPHVRMEIVQGDKFIELHGREDVVRAMKEFRKKFPNLKVELEDHDIQGDKVIWHSVIHVGDKELELIIISLKFDGRWVLESVELKHR	1.4
DELEKLLRYWLREFFDALLTGDEEIFTRYMDPEARLIVDGVEYHGREEVLKHLRDKLREIRIKDYVIHSLDFVNGRIHVDVRQDVVIGEKREKTRLHIHIDVIDGKNHELDIEWR	2.1
DELEKVMHDMADLILHLYLTGDWETFLELADPNVKITIGDKEHHGWKSWKRLLEEELRRVDHIDSKLKRVIAIGDKAHVDGHMEINVNGREYRLDVHIIYVIVNGRHKEIEIHSE	1.31
DELEKYVLDMVMLWIRSHSTGDEDALRRLADPHTRVIINGKELHGMDDVRRHIEEIRIHEEHVHVERVEIQGNKAIVDTSRHIWIDFNGQNIRVDVKTRFHLEKIDGVWYLKEVRIG	1.4
DELELHAEEMYEIWIKLEETGDWEIMLELADPNTKVTWNGVRIHGMEHYLERHHREHRKIKNITTHFILRDIDVIGNKSHVDGEVEIRVNGKTIILRVHFDNVVIDGRFKSHRVIVK	1.03
DELEQLAREVWETLRRAELTGDENRIHEMLDPNVRVDINGRESHGWDSFIYLLRELRFEDMHERDYRIRDVNGRLEITVTGDLEGEFNGKHFNRHTVIIIILEKYDGRWKVHEVKIELR	2.19
DELEQWVKHALEIWVRSLHTGDEDNLSELVDPNVRIDVNGQELHGRELVLHFLSHMRVHIIITRDREIQGNKAIMHLEVHHHQGDKEIHFRFDLIFHKYDGRWRLTEIRIE	1.03
DELERDSRRVMEKLLEILYTGNFDELRKLFDPNVITHIDGRHIHGMHITIRELLRIQEELGYEFVEARMTSTHHQGDKLYVHLEYRIGDKTTRFFWFITKIDGRWWITEMRFE	1.4
